Test results: US20030104635A1, “Screening methods” (AVIDEX LIMITED, priority 1999, published 2003)
Blank lines part the entries; values can stand above or below the substance they belong to.

Columns and labels:
[1] = target: tax 11-19 peptide-HLA-A2 complex (biotinylated); test: SPR (BIAcore 3000), sTCR-specific response over repeated injections after compound mixtures
MHC/peptide complex = settings: cited from earlier work
B7 = settings: read-out: Kd of CD28-B7 interaction; cited from earlier work
[2] = target: influenza matrix peptide-HLA-A2 complex (biotinylated) (influenza virus); test: SPR (BIAcore 3000), sTCR-specific response over repeated injections after compound mixtures
[3] = target: HLA-A2 (prepared as described in Example A1 and tagged with a biotin molecule); test: SPR (BIAcore 3000), sCD8αα-specific response as a percentage of the initial response
[4] = test system: class I MHC-restricted T cells; settings: cited from earlier work

loss of signal over the run [1]: 33%
Substance: A6 soluble T cell receptor (TCR)

Substance: CD8: T cell coreceptor binding class I MHC/peptide complex
off rate from an MHC/peptide complex (MHC/peptide complex): approximately 10 s^−1 | Kd (MHC/peptide complex; read-out: Kd of interaction with MHC/peptide complex): ~500 µM

Substance: CD28: receptor with low affinity interaction with B7
Kd (B7): ~4 µM

Substance: JM22 soluble T cell receptor (TCR)
loss of signal after 10 mixtures [2]: 10.2% | loss of signal over the run [2]: 9.3%

loss of signal over the run [3]: 3.6%
Substance: recombinant soluble form of CD8 (sCD8αα) (from UniProt P01732 22-141) (receptor)

Substance: soluble, recombinant CD8: soluble, recombinant CD8 derived from the human coreceptor
inhibition of class I MHC-restricted T cells responses [4]: potent inhibitor
